Measurements published in publication PMC3401287.

Target: HER2 (human (endogenous in BT-474, SK-BR-3, MDA-MB-361)) (UniProt P04626)
Experiment: flow cytometry on cells; cell-based saturation assay: 3x10^5 BT-474 cells with increasing concentration of DyLight-488-labeled Affibody in PBS with 2% FBS, on ice, one hour; non-specific binding subtracted; three independent experiments

Substance: Z_(HER2)-GS-Cys labeled with DyLight-488 (designed binder)
- Kd: 3.66 nM
